According to article PMC3885427:

Each substance was assayed against SOX6, full-length, yeast two-hybrid fusion (UniProt P35712) (assay: yeast two-hybrid (β-galactosidase liquid assay)). Details: S. cerevisiae Y187; SOX6 in pGBT9 (BD), SHOX2 mutant in pACT2 (AD); CRPG as substrate; parent: est. 100; read off a plot.
Chain of SOX6, full-length, yeast two-hybrid fusion (P35712 whole entry, the tested form may be a part): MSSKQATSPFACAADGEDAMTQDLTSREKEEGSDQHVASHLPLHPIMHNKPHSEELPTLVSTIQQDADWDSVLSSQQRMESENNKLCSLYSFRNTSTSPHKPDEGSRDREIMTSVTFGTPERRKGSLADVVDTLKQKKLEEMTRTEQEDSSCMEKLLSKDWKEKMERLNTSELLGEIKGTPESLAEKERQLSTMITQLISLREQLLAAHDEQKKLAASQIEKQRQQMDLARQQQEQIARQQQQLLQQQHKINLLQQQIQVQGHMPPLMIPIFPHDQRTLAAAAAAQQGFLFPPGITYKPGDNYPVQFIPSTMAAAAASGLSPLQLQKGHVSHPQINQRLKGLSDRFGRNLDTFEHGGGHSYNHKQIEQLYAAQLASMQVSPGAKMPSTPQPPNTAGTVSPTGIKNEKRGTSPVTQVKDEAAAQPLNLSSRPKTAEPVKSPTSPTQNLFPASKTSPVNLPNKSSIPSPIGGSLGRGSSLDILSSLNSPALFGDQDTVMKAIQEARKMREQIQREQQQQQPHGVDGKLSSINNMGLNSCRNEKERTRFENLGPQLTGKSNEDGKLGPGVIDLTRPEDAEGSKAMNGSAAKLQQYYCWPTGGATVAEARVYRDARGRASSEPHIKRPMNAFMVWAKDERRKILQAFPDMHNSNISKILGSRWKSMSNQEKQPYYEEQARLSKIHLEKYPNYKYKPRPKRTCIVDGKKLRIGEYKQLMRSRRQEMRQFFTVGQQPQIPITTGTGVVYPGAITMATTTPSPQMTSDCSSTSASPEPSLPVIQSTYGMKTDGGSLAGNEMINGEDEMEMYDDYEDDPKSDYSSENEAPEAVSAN

Chain of SHOX2a (called SHOX2 in the paper), full-length, yeast two-hybrid fusion, O60902-1 K139E (O60902 whole entry K139E, the tested form may be a part): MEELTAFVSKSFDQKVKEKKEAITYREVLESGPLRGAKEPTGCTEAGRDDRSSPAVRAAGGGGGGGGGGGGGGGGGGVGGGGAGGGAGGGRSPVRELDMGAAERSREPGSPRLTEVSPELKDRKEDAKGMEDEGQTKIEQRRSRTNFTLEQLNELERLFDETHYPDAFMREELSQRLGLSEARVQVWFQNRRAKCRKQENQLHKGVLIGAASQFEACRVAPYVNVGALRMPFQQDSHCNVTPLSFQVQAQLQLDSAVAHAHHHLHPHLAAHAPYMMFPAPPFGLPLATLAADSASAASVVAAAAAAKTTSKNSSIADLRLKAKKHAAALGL
Chain of SHOX2a (called SHOX2 in the paper), full-length, yeast two-hybrid fusion, O60902-1 R319P (O60902 whole entry R319P, the tested form may be a part): as the sequence (O60902 whole entry K139E, the tested form may be a part) above, with E139K, R319P counted along it
Chain of SHOX2a (called SHOX2 in the paper), full-length, yeast two-hybrid fusion, O60902-1 L155V (O60902 whole entry L155V, the tested form may be a part): as the sequence (O60902 whole entry K139E, the tested form may be a part) above, with E139K, L155V counted along it
Chain of SHOX2a (called SHOX2 in the paper), full-length, yeast two-hybrid fusion, O60902-1 R196C (O60902 whole entry R196C, the tested form may be a part): as the sequence (O60902 whole entry K139E, the tested form may be a part) above, with E139K, R196C counted along it
Chain of SHOX2a (called SHOX2 in the paper), full-length, yeast two-hybrid fusion, O60902-1 R218Q (O60902 whole entry R218Q, the tested form may be a part): as the sequence (O60902 whole entry K139E, the tested form may be a part) above, with E139K, R218Q counted along it
Chain of SHOX2a (called SHOX2 in the paper), full-length, yeast two-hybrid fusion, O60902-1 A269D (O60902 whole entry A269D, the tested form may be a part): as the sequence (O60902 whole entry K139E, the tested form may be a part) above, with E139K, A269D counted along it
Chain of SHOX2a (called SHOX2 in the paper), full-length, yeast two-hybrid fusion, O60902-1 A193P (O60902 whole entry A193P, the tested form may be a part): as the sequence (O60902 whole entry K139E, the tested form may be a part) above, with E139K, A193P counted along it

percent of parent (% Interaction with SOX6)	Substance
8	SHOX2a (called SHOX2 in the paper), full-length, yeast two-hybrid fusion, O60902-1 A193P
87	SHOX2a (called SHOX2 in the paper), full-length, yeast two-hybrid fusion, O60902-1 A269D
44	SHOX2a (called SHOX2 in the paper), full-length, yeast two-hybrid fusion, O60902-1 K139E
10	SHOX2a (called SHOX2 in the paper), full-length, yeast two-hybrid fusion, O60902-1 L155V
29	SHOX2a (called SHOX2 in the paper), full-length, yeast two-hybrid fusion, O60902-1 R196C
89	SHOX2a (called SHOX2 in the paper), full-length, yeast two-hybrid fusion, O60902-1 R218Q
80	SHOX2a (called SHOX2 in the paper), full-length, yeast two-hybrid fusion, O60902-1 R319P
